US12679878B2, “CRF2 receptor agonists and their use in therapy” (SANOFI, priority 2020, dated 2026)
Starred links: 1 amine or outer side, 2 acyl side, 3 side chain; linkers in the order of their positions; H or OH if unused. Non-standard residues stand in square brackets, D forms with d. Groups on a side chain read outwards from the residue. No end group written: not given here. *: point of attachment. γGlu = O=C(O)[C@H](CCC(=O)[*:2])N[*:1]; Palmitoyl = CCCCCCCCCCCCCCCC(=O)*; Aib = CC(C)(N)C(=O)O

T1: CRF1R receptor (anti-target) (UniProt P34998 24-415, limits assumed)
T1 sequence (looked up): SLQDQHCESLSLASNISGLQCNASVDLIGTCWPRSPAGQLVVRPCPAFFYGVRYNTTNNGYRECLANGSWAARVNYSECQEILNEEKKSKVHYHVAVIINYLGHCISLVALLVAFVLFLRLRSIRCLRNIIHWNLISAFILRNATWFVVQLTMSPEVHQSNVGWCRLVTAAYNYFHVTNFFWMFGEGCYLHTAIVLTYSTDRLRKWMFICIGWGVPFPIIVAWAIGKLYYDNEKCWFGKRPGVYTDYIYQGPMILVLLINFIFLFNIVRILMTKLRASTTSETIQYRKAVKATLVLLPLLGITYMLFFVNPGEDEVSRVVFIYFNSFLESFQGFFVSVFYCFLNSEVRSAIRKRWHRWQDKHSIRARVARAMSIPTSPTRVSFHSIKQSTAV

B1: peptide of SEQ ID NO: 25 (peptide)
peptide: IVLSLD[dV]PTKLK([γGlu-Palmitoyl])KKLLKQERKRKEREKAEKNARILERV-NH2
modifications: N-terminus assumed
SMILES: CCCCCCCCCCCCCCCC(=O)N[C@@H](CCC(=O)NCCCC[C@H](NC(=O)[C@H](CC(C)C)NC(=O)[C@H](CCCCN)NC(=O)[C@@H](NC(=O)[C@@H]1CCCN1C(=O)[C@H](NC(=O)[C@H](CC(=O)O)NC(=O)[C@H](CC(C)C)NC(=O)[C@H](CO)NC(=O)[C@H](CC(C)C)NC(=O)[C@@H](NC(=O)[C@@H](N)[C@@H](C)CC)C(C)C)C(C)C)[C@@H](C)O)C(=O)N[C@@H](CCCCN)C(=O)N[C@@H](CCCCN)C(=O)N[C@@H](CC(C)C)C(=O)N[C@@H](CC(C)C)C(=O)N[C@@H](CCCCN)C(=O)N[C@@H](CCC(N)=O)C(=O)N[C@@H](CCC(=O)O)C(=O)N[C@@H](CCCNC(=N)N)C(=O)N[C@@H](CCCCN)C(=O)N[C@@H](CCCNC(=N)N)C(=O)N[C@@H](CCCCN)C(=O)N[C@@H](CCC(=O)O)C(=O)N[C@@H](CCCNC(=N)N)C(=O)N[C@@H](CCC(=O)O)C(=O)N[C@@H](CCCCN)C(=O)N[C@@H](C)C(=O)N[C@@H](CCC(=O)O)C(=O)N[C@@H](CCCCN)C(=O)N[C@@H](CC(N)=O)C(=O)N[C@@H](C)C(=O)N[C@@H](CCCNC(=N)N)C(=O)N[C@H](C(=O)N[C@@H](CC(C)C)C(=O)N[C@@H](CCC(=O)O)C(=O)N[C@@H](CCCNC(=N)N)C(=O)N[C@H](C(N)=O)C(C)C)[C@@H](C)CC)C(=O)O
B2: peptide of SEQ ID NO: 26 (peptide)
peptide: IVLSLD[dV]PTKLK([γGlu-Palmitoyl])KKLLKQERKRKERE[Aib]AEKNARILERV-NH2
modifications: N-terminus assumed
SMILES: CCCCCCCCCCCCCCCC(=O)N[C@@H](CCC(=O)NCCCC[C@H](NC(=O)[C@H](CC(C)C)NC(=O)[C@H](CCCCN)NC(=O)[C@@H](NC(=O)[C@@H]1CCCN1C(=O)[C@H](NC(=O)[C@H](CC(=O)O)NC(=O)[C@H](CC(C)C)NC(=O)[C@H](CO)NC(=O)[C@H](CC(C)C)NC(=O)[C@@H](NC(=O)[C@@H](N)[C@@H](C)CC)C(C)C)C(C)C)[C@@H](C)O)C(=O)N[C@@H](CCCCN)C(=O)N[C@@H](CCCCN)C(=O)N[C@@H](CC(C)C)C(=O)N[C@@H](CC(C)C)C(=O)N[C@@H](CCCCN)C(=O)N[C@@H](CCC(N)=O)C(=O)N[C@@H](CCC(=O)O)C(=O)N[C@@H](CCCNC(=N)N)C(=O)N[C@@H](CCCCN)C(=O)N[C@@H](CCCNC(=N)N)C(=O)N[C@@H](CCCCN)C(=O)N[C@@H](CCC(=O)O)C(=O)N[C@@H](CCCNC(=N)N)C(=O)N[C@@H](CCC(=O)O)C(=O)NC(C)(C)C(=O)N[C@@H](C)C(=O)N[C@@H](CCC(=O)O)C(=O)N[C@@H](CCCCN)C(=O)N[C@@H](CC(N)=O)C(=O)N[C@@H](C)C(=O)N[C@@H](CCCNC(=N)N)C(=O)N[C@H](C(=O)N[C@@H](CC(C)C)C(=O)N[C@@H](CCC(=O)O)C(=O)N[C@@H](CCCNC(=N)N)C(=O)N[C@H](C(N)=O)C(C)C)[C@@H](C)CC)C(=O)O
B3: peptide of SEQ ID NO: 27 (peptide)
peptide: IVLSLD[dV]PTKLK([γGlu-Palmitoyl])KKLLKQERKRKEREQAEKNARILERV-NH2
modifications: N-terminus assumed
SMILES: CCCCCCCCCCCCCCCC(=O)N[C@@H](CCC(=O)NCCCC[C@H](NC(=O)[C@H](CC(C)C)NC(=O)[C@H](CCCCN)NC(=O)[C@@H](NC(=O)[C@@H]1CCCN1C(=O)[C@H](NC(=O)[C@H](CC(=O)O)NC(=O)[C@H](CC(C)C)NC(=O)[C@H](CO)NC(=O)[C@H](CC(C)C)NC(=O)[C@@H](NC(=O)[C@@H](N)[C@@H](C)CC)C(C)C)C(C)C)[C@@H](C)O)C(=O)N[C@@H](CCCCN)C(=O)N[C@@H](CCCCN)C(=O)N[C@@H](CC(C)C)C(=O)N[C@@H](CC(C)C)C(=O)N[C@@H](CCCCN)C(=O)N[C@@H](CCC(N)=O)C(=O)N[C@@H](CCC(=O)O)C(=O)N[C@@H](CCCNC(=N)N)C(=O)N[C@@H](CCCCN)C(=O)N[C@@H](CCCNC(=N)N)C(=O)N[C@@H](CCCCN)C(=O)N[C@@H](CCC(=O)O)C(=O)N[C@@H](CCCNC(=N)N)C(=O)N[C@@H](CCC(=O)O)C(=O)N[C@@H](CCC(N)=O)C(=O)N[C@@H](C)C(=O)N[C@@H](CCC(=O)O)C(=O)N[C@@H](CCCCN)C(=O)N[C@@H](CC(N)=O)C(=O)N[C@@H](C)C(=O)N[C@@H](CCCNC(=N)N)C(=O)N[C@H](C(=O)N[C@@H](CC(C)C)C(=O)N[C@@H](CCC(=O)O)C(=O)N[C@@H](CCCNC(=N)N)C(=O)N[C@H](C(N)=O)C(C)C)[C@@H](C)CC)C(=O)O
B4: peptide of SEQ ID NO: 28 (peptide)
peptide: IVLSLD[dV]PTKLK([γGlu-Palmitoyl])KKLLKQERKRKEREKAEKAARILERV-NH2
modifications: N-terminus assumed
SMILES: CCCCCCCCCCCCCCCC(=O)N[C@@H](CCC(=O)NCCCC[C@H](NC(=O)[C@H](CC(C)C)NC(=O)[C@H](CCCCN)NC(=O)[C@@H](NC(=O)[C@@H]1CCCN1C(=O)[C@H](NC(=O)[C@H](CC(=O)O)NC(=O)[C@H](CC(C)C)NC(=O)[C@H](CO)NC(=O)[C@H](CC(C)C)NC(=O)[C@@H](NC(=O)[C@@H](N)[C@@H](C)CC)C(C)C)C(C)C)[C@@H](C)O)C(=O)N[C@@H](CCCCN)C(=O)N[C@@H](CCCCN)C(=O)N[C@@H](CC(C)C)C(=O)N[C@@H](CC(C)C)C(=O)N[C@@H](CCCCN)C(=O)N[C@@H](CCC(N)=O)C(=O)N[C@@H](CCC(=O)O)C(=O)N[C@@H](CCCNC(=N)N)C(=O)N[C@@H](CCCCN)C(=O)N[C@@H](CCCNC(=N)N)C(=O)N[C@@H](CCCCN)C(=O)N[C@@H](CCC(=O)O)C(=O)N[C@@H](CCCNC(=N)N)C(=O)N[C@@H](CCC(=O)O)C(=O)N[C@@H](CCCCN)C(=O)N[C@@H](C)C(=O)N[C@@H](CCC(=O)O)C(=O)N[C@@H](CCCCN)C(=O)N[C@@H](C)C(=O)N[C@@H](C)C(=O)N[C@@H](CCCNC(=N)N)C(=O)N[C@H](C(=O)N[C@@H](CC(C)C)C(=O)N[C@@H](CCC(=O)O)C(=O)N[C@@H](CCCNC(=N)N)C(=O)N[C@H](C(N)=O)C(C)C)[C@@H](C)CC)C(=O)O

What follows are binders tested against T1, CRF1R receptor (anti-target) (assay: cell-based or functional assay).

| Binder | EC50 [nM] 0% HSA (cAMP, HTRF) [nM] | Emax (%) (100% = Sauvagine at 100 nM) |
| --- | --- | --- |
| B1 | > 100 | 0.1 |
| B2 | > 100 | 0.6 |
| B3 | > 100 | 34.2 |
| B4 | > 100 | 8.4 |
